Like-named read-outs stand apart in the source and are kept apart here.
Tests used:
human TF ECD-His6 [1] = biological target: T1, human TF ECD-His6 (human, UniProt P13726 33-251); assay: SPR (Biacore), TF-His over coupled antibody
T1 construct: Expi293-derived; Biacore used TF-His; also called TF-His; hTF
Description: (§1) Kinetic measurements for the anti-TF antibodies were conducted on an Octet QK384 (Pall ForteBio, Fremont, CA, USA) or a Biacore (GE Healthcare Bio-Sciences).
(§2) For the Biacore-based measurements, the antibody was covalently coupled to a CM5 or C1 chip using an amine-coupling kit (GE Healthcare Bio-Sciences). Association between the anti-TF antibodies and a five-point three-fold titration of TF-His starting at 25 to 500 nM was measured for 300 sec. Subsequently, dissociation between the anti-TF antibody and TF-His was measured for up to 1800 sec. Kinetic data was analyzed and fitted globally using a 1:1 binding model.

[2] = biological target: T2, cynomolgus monkey TF ECD-His6 (cynomolgus monkey (Macaca fascicularis)); assay: SPR (Biacore), TF-His over coupled antibody
T2 construct: Expi293-derived; also called TF-His; cTF
T2 chain: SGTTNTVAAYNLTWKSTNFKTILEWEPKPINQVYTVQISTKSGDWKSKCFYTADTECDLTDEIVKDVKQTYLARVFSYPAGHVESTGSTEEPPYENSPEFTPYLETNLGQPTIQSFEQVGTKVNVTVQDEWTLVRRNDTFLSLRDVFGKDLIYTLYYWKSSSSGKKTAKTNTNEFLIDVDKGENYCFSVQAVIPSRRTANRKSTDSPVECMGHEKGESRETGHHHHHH
Description: as §1, §2

human TF ECD-His6 [3] = biological target: T1, human TF ECD-His6; assay: BLI (ForteBio Octet)
Description: as §1
(§3) Briefly, ForteBio affinity measurements were performed by loading IgGs on-line onto AHC sensors. Sensors were equilibrated off-line in assay buffer for 30 min and then monitored on-line for 60 seconds for baseline establishment. Sensors with loaded IgGs were exposed to 100 nM antigen (human, cynomolgus, or mouse TF) for 3 min, afterwards they were transferred to assay buffer for 3 min for off-rate measurement. Alternatively, binding measurements were obtained by loading biotinylated TF monomer on SA sensors followed by exposure to 100 nM antibody Fab in solution. Kinetic data was analyzed and fitted using a 1:1 Langmuir binding model and the KD was calculated by dividing the koff by the kₒₙ.

mouse TF ECD-His6 = biological target: T3, mouse TF ECD-His6 (mouse, UniProt P20352 29-251); assay: BLI (ForteBio Octet)
T3 construct: Expi293-derived; also called TF-His; mTF
Description: as §1, §3

[4] = biological target: T2, cynomolgus monkey TF ECD-His6; assay: BLI (ForteBio Octet)
Description: as §1, §3

[5] = biological target: T4, human Tissue Factor on human TF-positive cells (human, UniProt P13726 33-295); assay: competition flow cytometry on MDA-MB-231 cells: unlabeled antibody titration first, then 20 nM 43D7-Alexa488 as the competitor
T4 construct: also called hTF; CD142
Description: After another 1 hr incubation on ice, cells were washed, stained with a viability dye, and analyzed by flow cytometry. The Alexa488 fluorescence data from viable cells was summarized using median fluorescence intensity.

[6] = biological target: T5, hTF_N171H_T197K construct on HEK293 cells (human, UniProt P13726 33-251); assay: live cell staining, HEK293 cells
T5 construct: The entry already carries N171H and T197K; not shown: transmembrane/cytoplasmic anchor of the cell-surface construct
T5 chain: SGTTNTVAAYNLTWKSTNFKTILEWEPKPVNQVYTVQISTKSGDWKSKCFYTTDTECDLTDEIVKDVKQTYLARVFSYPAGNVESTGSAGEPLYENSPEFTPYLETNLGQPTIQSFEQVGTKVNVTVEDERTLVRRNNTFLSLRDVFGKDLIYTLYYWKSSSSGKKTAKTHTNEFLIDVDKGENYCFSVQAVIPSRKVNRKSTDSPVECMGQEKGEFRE

[7] = biological target: T4, human Tissue Factor on human …; assay: flow cytometry, antibody titration on A431 cells (human TF), 4-parameter fit of MFI
Description: (§4) After 2 washes, dead cells were labeled with TO-PRO-3 Iodide (ThermoFisher Scientific) and samples were analyzed on a CytoFLEX flow cytometer (Beckman Coulter, Brea, CA, USA) or Novocyte flow cytometer (ACEA Biosciences, San Diego, CA, USA). The median fluorescence intensities (MFIs) at each dilution were plotted and cell EC₅₀'s were derived using a 4-parameter binding model in Prism (GraphPad, La Jolla, CA, USA).

[8] = biological target: T6, full-length mouse TF with a C-terminal FLAG tag on Flp-In-CHO cells (mouse, UniProt P20352 29-294); assay: flow cytometry on CHO cells expressing mouse TF, MFI at 250 nM antibody
T6 construct: also called CHO-mTF; mouse TF-positive CHO cells
Description: as §4

[9] = biological target: T4, human Tissue Factor on human …; assay: flow cytometry, antibody titration on HCT-116 cells (endogenous human TF), 4-parameter fit of MFI
Description: as §4

[10] = biological target: T4, human Tissue Factor on human …; assay: flow cytometry, antibody titration on MDA-MB-231 cells (human TF), 4-parameter fit of MFI
Description: as §4

[11] = biological target: T4, human Tissue Factor on human …; assay: competition flow cytometry on MDA-MB-231 cells: unlabeled antibody titration first, then 20 nM 25A3-Alexa488 as the competitor
[12] = biological target: T4, human Tissue Factor on human …; assay: as above; remark: listed apart in the source
[13] = biological target: T7, rTF (rat TF) construct on HEK293 cells (rat, UniProt P42533 29-252); assay: flow cytometry (live cell staining), antibody titration 1:3 from 250 nM on HEK293 cells transfected with rTF
T7 construct: not shown: transmembrane/cytoplasmic anchor of the cell-surface construct

[14] = biological target: T4, human Tissue Factor on human …; assay: flow cytometry, titration of unconjugated antibody on HCT-116 cells (human TF), 4-parameter fit of MFI
[15] = biological target: T8, r141-194_h chimeric rat-human TF construct on HEK293 cells (rat with human segment, UniProt P42533 29-252); assay: flow cytometry (live cell staining), antibody titration 1:3 from 250 nM on HEK293 cells transfected with r141-194_h
T8 construct: not shown: transmembrane/cytoplasmic anchor of the cell-surface construct

[16] = biological target: T9, Macaca mulatta TF on RF/6A cells (Macaca mulatta (protein sequence stated …, UniProt P13726 33-294 (human entry))); assay: flow cytometry, IgG1 titrated on TF-positive Macaca mulatta RF/6A cells, 4-parameter fit
T9 construct: Endogenous TF of the RF/6A cell line; also called TF-positive Macaca mulatta RF/6A cells; cynomolgus TF
T9 chain: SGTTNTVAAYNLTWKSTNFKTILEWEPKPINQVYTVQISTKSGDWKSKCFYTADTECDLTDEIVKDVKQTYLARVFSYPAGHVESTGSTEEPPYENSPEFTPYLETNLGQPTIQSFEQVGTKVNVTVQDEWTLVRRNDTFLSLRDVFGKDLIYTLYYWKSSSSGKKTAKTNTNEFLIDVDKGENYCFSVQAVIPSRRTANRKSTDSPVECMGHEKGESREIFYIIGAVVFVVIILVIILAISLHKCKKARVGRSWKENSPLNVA
Description: as §4

E. coli-derived TF = biological target: T10, E. coli-derived TF (human (Example 17 does not restate the …, UniProt P13726 33-251)); assay: protein ELISA, plate coated with E. coli-derived TF-His, antibody titrated, HRP secondary, luminescence
T10 construct: also called E. coli-derived TF-His; E. coli-derived TF protein
Description: (§5) Plates coated with Expi293- or E. coli-derived TF-His were incubated with increasing concentrations of antibodies.

Expi293-derived TF-His = biological target: T11, Expi293-derived TF-His (human (Example 17 does not restate the …, UniProt P13726 33-251)); assay: protein ELISA, plate coated with Expi293-derived TF-His, antibody titrated, HRP secondary, luminescence; Expi293-derived TF, not E. coli-derived
T11 construct: Glycosylated TF ECD-His6 from Expi293 cells; also called Expi293-derived TF protein; TF ECD-His6
Description: as §5

h1-107_r = biological target: T12, h1-107_r (human/rat chimera); assay: live cell staining, flow cytometry, transfected HEK293
T12 chain: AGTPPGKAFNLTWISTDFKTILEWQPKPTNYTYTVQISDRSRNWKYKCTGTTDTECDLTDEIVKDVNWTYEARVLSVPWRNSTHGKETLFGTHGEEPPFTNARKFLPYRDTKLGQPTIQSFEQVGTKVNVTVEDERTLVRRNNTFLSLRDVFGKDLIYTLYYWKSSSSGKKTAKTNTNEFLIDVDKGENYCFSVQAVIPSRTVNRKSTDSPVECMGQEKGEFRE
Description: (§6) To establish binding of the anti-human TF antibodies to the various TF constructs, HEK293 cells were transfected with a DNA plasmid that co-expresses the TF construct and a green fluorescent protein marker. […] Upon acquisition of 80,000 live events on a flow cytometer, live cells marked with the fluorescent marker were analyzed for the degree of staining by the anti-TF antibody.

rTF (rat TF) [17] = biological target: T13, rTF (rat TF) (rat, UniProt P42533 29-252); assay: as above
Description: as §6

h159-219_r = h159-219_r (human/rat chimera); assay: as above
Description: as §6

h1-77_r = biological target: T14, h1-77_r (human/rat chimera); assay: as above
T14 construct: Human TF ECD with residues 1-77 replaced by rat segment
Description: as §6

rTF (rat TF) [18] = biological target: T13, rTF (rat TF); assay: as above; remark: listed apart in the source
Description: as §6

[19] = biological target: T15, hTF (human Tissue Factor construct) (human, UniProt P13726 33-251); assay: as above
T15 construct: also called human TF
Description: as §6

hTF_N171H_T197K = biological target: T16, hTF_N171H_T197K (human, UniProt P13726 33-251); assay: as above
T16 chain: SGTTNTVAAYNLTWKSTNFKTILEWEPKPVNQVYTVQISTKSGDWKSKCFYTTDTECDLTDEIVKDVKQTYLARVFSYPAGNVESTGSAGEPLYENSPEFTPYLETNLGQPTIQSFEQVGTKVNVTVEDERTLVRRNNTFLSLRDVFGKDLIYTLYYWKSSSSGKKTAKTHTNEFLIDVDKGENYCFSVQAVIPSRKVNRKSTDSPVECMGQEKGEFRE
Description: as §6

r141-194_h = r141-194_h (rat/human chimera, UniProt P42533 29-252); assay: as above
Description: as §6

h108-219_r = biological target: T17, h108-219_r (human/rat chimera); assay: as above
T17 chain: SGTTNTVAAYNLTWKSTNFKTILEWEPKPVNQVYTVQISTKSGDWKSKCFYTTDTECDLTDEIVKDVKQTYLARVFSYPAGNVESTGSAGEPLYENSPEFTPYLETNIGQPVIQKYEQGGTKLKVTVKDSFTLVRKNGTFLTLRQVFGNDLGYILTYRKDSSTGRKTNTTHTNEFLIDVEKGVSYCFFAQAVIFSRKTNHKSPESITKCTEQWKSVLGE
Description: as §6

B1: 25A3 (antibody, human IgG1, V domains shown)
VH: QVQLVQSGAEVKKPGASVKVSCKASGYTFDVYGISWVRQAPGQGLEWMGWIAPYSGNTNYAQKLQGRVTMTTDTSTSTAYMELRSLRSDDTAVYYCARDAGTYSPFGYGMDVWGQGTTVTVSS
VL: DIQMTQSPSTLSASVGDRVTITCQASQSINNWLAWYQQKPGKAPKLLIYKAYNLESGVPSRFSGSGSGTEFTLTISSLQPDDFATYYCQLFQSLPPFTFGGGTKVEIK
notes: Human IgG1; also called antibody designated 25A3
B1 gave a Kd (human TF ECD-His6 [1]) of 0.36 nM, a Kd [2] of 0.21 nM and a Kd (human TF ECD-His6 [3]) of 1.67 nM. The Kd (mouse TF ECD-His6) was 131 nM, the Kd [4] was 1.36 nM and the IC50 [5] was 0.84 nM. The binding result [6] was “no binding (tested: 15 ug/ml (100 nM); below 50% of hTF)”, the EC50 [7] was 0.5 nM and the “MFI at 250 nM” value [8] was 5.8e+06. For the same binder, the EC50 [9] was 0.077 nM, the EC50 [10] was 0.17 nM and the IC50 [11] was 1.03 nM. The IC50 [12] was 1.13 nM, the binding result [13] was “no binding (tested: 250 nM)” and the EC50 [14] was 0.16 nM.

B2: 10H10 (M1593) (antibody, V domains shown)
VH: EVQLVQSGAEVKKPGESLRISCKGSGYTFAPYWIEWVRQMPGKGLEWMGDILPGTGFTTYSPSFQGHVTISADKSISTAYLQWSSLKASDTAMYYCARSGYYGNSGFAYWGQGTLVTVSS
VL: DIVMTQTPLSLPVTPGEPASISCKSSQSLLSSGNQKNYLTWYLQKPGQSPQLLIYWASTRESGVPDRFSGSGSGTDFTLKISRVEAEDVGVYYCQNDYTYPLTFGQGTKLEIK
notes: also called anti-TF M1593
B2: no binding (tested: 250 nM) [15]; no binding (tested: 250 nM) [13].

B3: 1F (antibody, human IgG1, V domains shown)
VH: EVQLLESGGGLVQPGGSLRLSCAASGFTFSDYAMGWVRQAPGKGLEWVSTISGSGGLTYYADSVKGRFTISRDNSKNTLYLQMNSLRAEDTAVYYCAKAPYGYYMDVWGKGTTVTVSS
VL: not shown
notes: Human IgG1; also called antibody designated 1F
For B3, the EC50 [16] was 0.17 nM, the EC50 (E. coli-derived TF) was 0.32 nM and the EC50 (Expi293-derived TF-His) was 0.41 nM.

B4: 39A (antibody, V domains shown)
VH: QVQLVQSGAEVKKPGSSVKVSCKASGGTFSSNAIGWVRQAPGQGLEWMGSIIPIIGFANYAQKFQGRVTITADESTSTAYMELSSLRSEDTAVYYCARDSGYYYGASSFGMDVWGQGTTVTVSS
VL: EIVMTQSPATLSVSPGERATLSCRASQSVSSNLAWYQQKPGQAPRLLIYGASTRATGIPARFSGSGSGTEFTLTISSLQSEDFAVYYCEQYNNLPLTFGGGTKVEIK
notes: Human IgG (detected with anti-human IgG-Fc)
In the case of B4, the “percent antibody binding to TF construct relative to hTF” value (h1-107_r) is reported as 0%, the “percent antibody binding to TF construct relative to hTF” value (rTF (rat TF) [17]) is reported as 0% and the “percent antibody binding to TF construct relative to hTF” value (h159-219_r) is reported as 141%. The “percent antibody binding to TF construct relative to hTF” value (h1-77_r) was 0%, the “percent antibody binding to TF construct relative to hTF” value (rTF (rat TF) [18]) was 0% and the “percent antibody binding to TF construct relative to hTF” value [19] was 100%. The “percent antibody binding to TF construct relative to hTF” value (hTF_N171H_T197K) was 94% and the “percent antibody binding to TF construct relative to hTF” value (r141-194_h) was 0%.

B5: 5G9 (humanized TF8-5G9, CNTO 860) (antibody, V domains shown)
VH: QVQLVESGGGVVQPGRSLRLSCKASGFNIKDYYMHWVRQAPGKGLEWIGLIDPENGNTIYDPKFQGRFTISADNSKNTLFLQMDSLRPEDTAVYYCARDNSYYFDYWGQGTPVTVSS
VL: DIQMTQSPSSLSASVGDRVTITCKASQDIRKYLNWYQQKPGKAPKLLIYYATSLADGVPSRFSGSGSGTDYTFTISSLQPEDIATYYCLQHGESPYTFGQGTKLEIT
notes: Previously described anti-TF antibody; detected with anti-human IgG-Fc; also called h5G9
B5 was tested, and the “percent antibody binding to TF construct relative to hTF” value (h108-219_r) was 0%.

Source: US20250361322A1 (ICONIC THERAPEUTICS, published 2025)
